Target: 4-1BB-mFc (UniProt Q07011 24-186)
Experiment: SPR (Biacore), multi-cycle kinetics, antibody captured by anti-human IgG on CM5 chip, 4-1BB antigen as analyte

Row | Kd [pM] | koff [s⁻¹] | kon [M⁻¹ s⁻¹] | Binder
1 | 423 | 0.000122 | 289000 | hu6F9B1A6/hu10B2-scFv双功能抗体 (人源化PD-L1/4-1BB双功能抗体) (bispecific antibody, human IgG4 S228P, F234A L235A, also called hu6F9B1A6/4-1BB; hu6F9B1A6-10B2-CC) heavy: QVQLVQSGAEVKKPGSSVKVSCKASGYTFIGYTVHWVRQAPGQGLEWIGWIYPGSGSIKYNEKFKDRATLTADKSTSTVYMELSSLRSEDTAVYYCARHGTGKFNYFDVWGQGTTVTVSSASTKGPSVFPLAPCSRSTSESTAALGCLVKDYFPEPVTVSWNSGALTSGVHTFPAVLQSSGLYSLSSVVTVPSSSLGTKTYTCNVDHKPSNTKVDKRVESKYGPPCPPCPAPEAAGGPSVFLFPPKPKDTLMISRTPEVTCVVVDVSQEDPEVQFNWYVDGVEVHNAKTKPREEQFNSTYRVVSVLTVLHQDWLNGKEYKCKVSNKGLPSSIEKTISKAKGQPREPQVYTLPPSQEEMTKNQVSLTCLVKGFYPSDIAVEWESNGQPENNYKTTPPVLDSDGSFFLYSRLTVDKSRWQEGNVFSCSVMHEALHNHYTQKSLSLSPGKGGGGSGGGGSDVVVTQTPLSLSVTPGQPASISCRSSQSLTNSYGHTYLSWYLQKPGQSPQLLIYGISIRFSGVPDRFSGSGSGTDFTLKISRVEAEDVGVYYCLQGTHQPWTFGGGTKVEIKGGGGSGGGGSGGGGSQVQLVESGGGVVQPGRSLRLSCAASGFTFSTFGLHWVRQAPGKGLEWVAYISSDSNTIYYADTMKGRFTISRDNSKNTLYLQMNSLRAEDTAVYYCTRGDPAYYGYGGRFVYALDFWGQGTLVTVSS VL: DIQLTQSPSFLSASVGDRVTITCRASSTVNYMHWYQQKPGKAPKPWIYATFNLASGVPSRFSGSGSGTEYTLTISSLQPEDFATYYCQTWSSYPLTFGQGTKLEIK
2 | 338 | 0.000204 | 602000 | hu10B2 (人源化4-1BB抗体) (antibody, V domains shown, The antibody was captured with anti-human IgG in SPR; also called 4-1BB(hu10B2); hu10B2 4-1BB抗体) VH: QVQLVESGGGVVQPGRSLRLSCAASGFTFSTFGLHWVRQAPGKGLEWVAYISSDSNTIYYADTMKGRFTISRDNSKNTLYLQMNSLRAEDTAVYYCTRGDPAYYGYGGRFVYALDFWGQGTLVTVSS VL: DVVVTQTPLSLSVTPGQPASISCRSSQSLTNSYGHTYLSWYLQKPGQSPQLLIYGISIRFSGVPDRFSGSGSGTDFTLKISRVEAEDVGVYYCLQGTHQPWTFGGGTKVEIK

— CN114736303A (YINGNUO LAKE MEDICINE HANGZHOU CO LTD, dated 2022)
